Results taken from paper PMC8809517, “Cofactor-independent RNA editing by a synthetic S-type PPR protein”.
Numbering of substitutions follows the chain as printed.

T1: GFP-9S library array, motif 4 ND N98S;D124M (synthetic construct, N98S;D124M)
T1 chain: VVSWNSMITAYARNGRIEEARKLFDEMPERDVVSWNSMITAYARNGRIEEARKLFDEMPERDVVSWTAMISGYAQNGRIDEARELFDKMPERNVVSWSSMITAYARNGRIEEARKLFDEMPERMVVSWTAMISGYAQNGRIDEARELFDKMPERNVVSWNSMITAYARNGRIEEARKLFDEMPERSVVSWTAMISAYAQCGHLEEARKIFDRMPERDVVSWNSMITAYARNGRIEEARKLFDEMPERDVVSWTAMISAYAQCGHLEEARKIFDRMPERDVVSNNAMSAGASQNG

T2: GFP-9S library array, motif 4 ND N98S;D124F (synthetic construct, N98S;D124F)
T2 chain: T1 chain with M124F

T3: GFP-9S library array, motif 4 ND N98I;D124G (synthetic construct, N98I;D124G)
T3 chain: T1 chain with S98I, M124G

T4: GFP-9S library array, motif 4 ND N98V;D124E (synthetic construct, N98V;D124E)
T4 chain: T1 chain with S98V, M124E

T5: GFP-9S library array, motif 4 ND N98T;D124M (synthetic construct, N98T;D124M)
T5 chain: T1 chain with S98T


Assays:
Assay in all cases: high-throughput RNA pulldown from lysate on Ni-NTA beads; HRP: 50 mM Tris pH 8, 150 mM NaCl, 1 mM beta-mercaptoethanol, 50 ug/ml BSA, 3 ug/ml yeast RNA, 0.5% heparin; ITC and FP: Tris pH 8, 200 mM KCl, 5% glycerol; MST: 50 mM Tris pH 8, 200 mM NaCl, 1 mM DTT, BSA, heparin, 0.05% Tween 20
Details in all cases: tags: N-terminal His-eGFP
[1] = molecular target: T1, GFP-9S library array, motif 4 ND …
[2] = molecular target: T2, GFP-9S library array, motif 4 ND …
[3] = molecular target: T3, GFP-9S library array, motif 4 ND …
[4] = molecular target: T4, GFP-9S library array, motif 4 ND …
[5] = molecular target: T5, GFP-9S library array, motif 4 ND …

Binder	Kd ([1]; label: 5' IRDye 800CW) [nM]	Kd ([2]; label: 5' IRDye 800CW) [nM]	Kd ([3]; label: 5' IRDye 800CW) [nM]	Kd ([4]; label: 5' IRDye 800CW) [nM]	Kd ([5]; label: 5' IRDye 800CW) [nM]	Kd ([1]; label: 5' Cy5) [nM]	Kd ([2]; label: 5' Cy5) [nM]	Kd ([3]; label: 5' Cy5) [nM]	Kd ([4]; label: 5' Cy5) [nM]	Kd ([5]; label: 5' Cy5) [nM]
AUUAUACGUGA (ssRNA) [IR-rpoA-U]	160	171	26.6	244	165	–	–	–	–	–
AUUACACGUGA (ssRNA) [Cy5-rpoA]	–	–	–	–	–	120	39	69.2	287	101
AUUAAACGUGA (ssRNA) [IR-rpoA-A]	369	76.7	40.6	168	162	–	–	–	–	–
AUUAGACGUGA (ssRNA) [Cy5-rpoA-G]	–	–	–	–	–	183	77.7	72	167	107
